The values below come from patent US11753455B2, “Compounds for treatment of obesity” (Novo Nordisk A/S, priority 2018, dated 2023).

This data set deals with brain regions of mice (C57BL/6J). The data set can be described thus: In vivo imaging of fluorescently labelled GLP-1 Fab fusion proteins in brain (LSFM). The note with it: single i.v. dose 120 nmol/kg, 6 hours. The protocol: The two fusion proteins include one and the same GLP-1 receptor agonist compound but differ in the Fab part. […] The study is an acute study in mice.
The mice were anesthetised with isoflurane 6 hours (“6H”) following administration of compound and euthanised by transcardiac perfusion with 10 ml heparinised (10 U/ml) saline followed by 10 ml 10% neutral buffered formalin (NBF). Brains were removed and immersed into 10% NBF and stored at 4° C. O/N until further processed.
The brains were dehydrated and saturated in dibenzyl ether (DBE) to minimise scattering of light during scanning by removal of water, and by matching of the refractive index. Brain tissue was dehydrated at room temperature in graded tetrahydrofuran (THF) diluted in demineralised H2O (w/v) 50/80/96/99%/2×100% 6-12 hours for each step. The brains were then cleared at room temperature in 3×DBE for 6-12 hours each step.
Brain samples were scanned using an UltraMicroscope II LSFM system (Lavision Biotec, Bielefeld, Germany) in 10.32 μm isotropic resolution. Data acquisition was performed using a 620/60 nm excitation filter and 680/30 nm emission filter for imaging autofluorescence, and a 710/75 nm excitation filter and 780/40 nm emission filter for imaging specific signals.
Images are single plane images of a z plane (2D). Spectral unmixing was performed to minimise the contribution of tissue auto-fluorescence in the images of the specific signals presented. The unmixing was carried out in Imaris (Release 7.6.5, Zurich, Switzerland) on imported tiff-files. The estimated auto-fluorescence contribution in the specific channel was calculated and removed based on ratios of voxel intensities between selected voxels in the unspecific recording and the corresponding voxels in the specific channel. A ratio was computed for 40 sets of voxels selected based on the histogram of the unspecific recording. The unmixing algorithm was written in Matlab (Release 2012b, Math Works, Natick, Massachusetts, United States) and applied as a XT-plugin in Imaris.
Images were registered to a common reference atlas space for visualisation and quantification using the Elastix software library version 4 (Klein, Stefan, et al. “Elastix: a toolbox for intensity-based medical image registration.” IEEE transactions on medical imaging 29.1 (2010): 196-205). A source image IS(x) was registered to the target atlas image IT(x) by finding a coordinate transformation T(x) that made IS(T(x)) spatially aligned with IT(x). […] Quantification was performed by summation of the unmixed intensity value of all voxels within the individual brain regions, indicating the total fluorescence signal from the compounds in these regions. […] The total signal thus indicates the total fluorescence signal from the compounds in these regions. […]

The mark [1] stands for this setting: active vs inactive TfR compound.

B1: Example 8: VivoTag750 fluorescence labelled GLP-1 anti TfR-Fab fusion protein of Example 6 (conjugate)
chain: HGEGTFTSDVSSYLEEQAAREFIAWLVKGRPGGGSGGGSGGGSGGGSDIQMTQSPASLSASLEEIVTITCQASQDIGNWLAWYQQKPGKSPQLLIYGATSLADGVPSRFSGSRSGTQFSLKISRVQVEDIGIYYCLQAYNTPWTFGGGTKLELKRADAAPTVSIFPPSSEQLTSGGASVVCFLNNFYPKDINVKWKIDGSERQNGVLNSWTDQDSKDSTYSMSSTLTLTKDEYERHNSYTCEATHKTSTSPIVKSFNRNECEVQLVESGGGLVQPGNSLTLSCVASGFTFSNYGMHWIRQAPKKGLEWIAMIYYDSSKMNYADTVKGRFTISRDNSKNTLYLEMNSLRSEDTAMYYCAVPTSHYVVDVWGQGVSVTVSSAKTTPPSVYPLAPGSAAQTNSMVTLGCLVKGYFPEPVTVTWNSGSLSSGVHTFPAVLQSDLYTLSSSVTVPSSTWPSETVTCNVAHPASSTKVDKKIVPRDCGHHHHHHHHHH
modifications: VivoTag750 fluorescent label; GLP-1 anti TfR-fab fusion protein; DISULFID (70)..(135); DISULFID (181)..(241); DISULFID (261)..(481); DISULFID (283)..(357); DISULFID (407)..(461)
Take B1: under setting [1], the “total fluorescence signal in brain regions that do not express the GLP-1R (FIG. 16D)” value is “slightly higher” and the “total fluorescence signal in circumventricular organs expressing the GLP-1R but devoid of a BBB (FIG. 16B)” value is recorded as “slightly higher”. Also, where the note is “compared to GLP-1-Inactive TfR”, the “total fluorescence signal in brain regions expressing the GLP-1R (FIG. 16A)” value is given as “higher” and the “total fluorescence signal in brain structures expressing the GLP-1R which are protected by the BBB (FIG. 16C)” value was “highly increased”.
